The text below walks through data of publication PMC300677.

As usually defined, the Kd is the equilibrium constant for the complex coming apart. A higher Kd goes with a looser complex.

For the assay, the target named is isolated iron-loaded transferrin C-lobe (Fe-C-lobe). The assay can be described thus: biosensor binding assay (SPR), equilibrium analysis.

With “soluble human transferrin receptor 1 (TfR) ectodomain, wild type (from UniProt P02786) D125K”, under “KD1”, the dissociation constant Kd is 1000 nM and the ratio to parent was found to be 1.2. In addition, for the setting “KD2”, the Kd is 2600 nM and the ratio to parent came out at 0.8.

With “soluble human transferrin receptor 1 (TfR) ectodomain, wild type (from UniProt P02786) R651A”, where the note is “KD1, KD2 relative to wild-type, single entry”, the ratio to parent was over 1000.

“soluble human transferrin receptor 1 (TfR) ectodomain, wild type (from UniProt P02786) Y123S”: under “KD1”, the Kd worked out at 800 nM and the ratio to parent came out at 1. Also, under “KD2”, the Kd turned out to be 5700 nM and the ratio to parent came out at 1.7.

In the case of “soluble human transferrin receptor 1 (TfR) ectodomain, wild type (from UniProt P02786) F760A”, under “KD1”, the Kd is 1900 nM and the ratio to parent was found to be 2.4. Where the note is “KD2”, the Kd came to 2700 nM and the ratio to parent was found to be 0.8.
